“Also recorded” adds a separate entry of the source.

One molecule from patent US20220369998A1, “METHODS FOR DIAGNOSING AND TREATING NEURAL DISEASES” (B. G. NEGEV TECHNOLOGIES AND APPLICATIONS LTD., AT …, priority 2019, published 2022) can be followed below.

The assay relates to young rats (10-12 weeks of age). Description: Long-term intra-cerebroventricular albumin perfusion in rats, telemetric ECoG recording and PSWE detection. The class given is in vivo, rat. The procedure:
All animal experiments were conducted following an ethical committee approval of the institution in which they were performed, Ben Gurion University of the Negev, Beer-Sheva, Israel or The University of California, Berkeley, Berkeley, Calif., US. Electrodes and wireless transmitters were implanted in the following animal groups: 1) Twelve weeks old (n=5) mice; 2) 18-22 months old (n=12) mice; 3) Nine to 11-weeks-old Wistar male rats implanted with 28 days long intra-cerebroventricular (ICV) perfusion osmotic pumps (N=8, 0.8 mM albumin infusion, N=5 ACSF infusion); 4) Sprague-Dawley rats (n=5, weighing 300 gr) 3 weeks after status epilepticus (SE, see below) and naïve rats (N=3). Groups 1 and 2 electrode coordinates: 0.5 mm rostral or 3.5 mm caudal and 1 mm lateral to bregma, on each side (4 screws, 2 in each hemisphere); Group 3 coordinates: 4.8 mm posterior or 2.7 mm anterior, and 2.2 mm lateral to bregma, on each side (4 screws, 2 in each hemisphere); Group 4 coordinates: 3 mm caudal and 2.5 mm lateral to bregma, on each side (2 screws, 1 in each hemisphere)). Continuous ECoG (sampling rate of 500 Hz) was recorded wirelessly from freely moving animals in their home cage for the described duration of experiments.
Signal processing was performed offline. Pre-processing included high pass filter (1 Hz), low pass filter (100 Hz) and notch (band-stop) filter (45-55 Hz). EEG human recordings were analyzed as reference to average. Human data were preprocessed by EEGLAB. Animal data were preprocessed using home-developed MATLAB (MathWorks Ltd., MA USA) scripts. To detect PSWE, ECoG or EEG signals were buffered into 2 sec long epochs with 1 sec overlap. Spectral analysis by Fast Fourier Transform (FFT) was applied and the median power frequency (MPF) was extracted for each epoch. PSWE was defined if MPF was <6 Hz for >5 consecutive seconds (see results). Analysis was performed separately for each recorded channel. Power spectrum as in FIG. 1A was calculated for the average channel and for animals ECoG data (e.g., FIG. 2A) over a single channel. FFT was also applied for the entire recording period buffered into 8 seconds epoch with 4 seconds overlap to analyze relative power across the frequency spectrum of 1-20 Hz. Processing was performed by self-developed MATLAB scripts.
The inventors next recorded ECoG from young rats (10-12 weeks of age) exposed to ICV albumin (N=8), compared to animals exposed to ACSF (controls, N=5).

[1] abbreviates: ECoG spectral analysis, long-term albumin N=8 vs ACSF N=5.

B1: albumin (protein, UniProt P02770 25-608, looked up)
Albumin: EAHKSEIAHRFKDLGEQHFKGLVLIAFSQYLQKCPYEEHIKLVQEVTDFAKTCVADENAENCDKSIHTLFGDKLCAIPKLRDNYGELADCCAKQEPERNECFLQHKDDNPNLPPFQRPEAEAMCTSFQENPTSFLGHYLHEVARRHPYFYAPELLYYAEKYNEVLTQCCTESDKAACLTPKLDAVKEKALVAAVRQRMKCSSMQRFGERAFKAWAVARMSQRFPNAEFAEITKLATDVTKINKECCHGDLLECADDRAELAKYMCENQATISSKLQACCDKPVLQKSQCLAEIEHDNIPADLPSIAADFVEDKEVCKNYAEAKDVFLGTFLYEYSRRHPDYSVSLLLRLAKKYEATLEKCCAEGDPPACYGTVLAEFQPLVEEPKNLVKTNCELYEKLGEYGFQNAVLVRYTQKAPQVSTPTLVEAARNLGRVGTKCCTLPEAQRLPCVEDYLSAILNRLCVLHEKTPVSEKVTKCCSGSLVERRPCFSALTVDETYVPKEFKAETFTFHSDICTLPDKEKQIKKQTALAELVKHKPKATEDQLKTVMGDFAQFVDKCCKAADKDNCFATEGPNLVARSKEALA
notes: serum protein infused ICV (0.8 mM, 28 days) in rats as a model of chronic BBB disruption
On to B1, for which, under setting [1], the “relative power in alpha (8-12 Hz) band compared with ACSF-injected animals” value was “significantly lower”, the “relative power in beta (12-20 Hz) band compared with ACSF-injected animals” value is on record as “significantly lower” and the “relative power in the delta (1-5 Hz) band compared with ACSF-injected animals” value is “significantly greater”. Further, the “occurrence per minute of PSWEs, albumin-injected hemisphere compared with the non-injected hemisphere” value (ICV osmotic pump, right lateral ventricle, four weeks after onset of perfusion, ipsilateral vs contralateral, N=8) is listed as “significantly higher; also recorded: more common”. Under “albumin treated group vs ACSF”, the “PSWE duration compared with the ACSF treated group” value is listed as “significantly longer” and the “PSWE median frequency compared with the ACSF treated group” value is listed as “slower; also recorded: significantly lower”. Further, the “occurrence per minute of PSWEs, albumin-injected hemisphere compared with ACSF-injected controls” value (four weeks after onset of perfusion, albumin N=8 vs ACSF N=5) is reported as “significantly higher; also recorded: more common”. In addition, the “higher occurrence per minute of PSWEs detected at one week” value (one week after onset of perfusion) is given as “not at one week”.
